Assay [1] concerns the target T1, HER3 extracellular domain (ECD) (UniProt P21860 20-643).
T1 construct: extracellular domain; Coupled to an amine-reactive biosensor surface at 10-15 ug/ml; also called HER3 ECD; ErbB3
Kind of assay: FortéBio biosensor (BLI), HER3 ECD on amine-reactive surface; average (Stdev 111,000).

The target of assay [2] is HER3 on tumor cells (MCF-7, MB468) (UniProt P21860 20-1342, limits assumed). The experiment in a line: cell-based or functional assay.
Assay [3] concerns the target T2, HER3:heregulin complex (UniProt P21860 20-643; Q02297 177-241, limits assumed).
T2 construct: Non-covalent receptor-ligand complex, formed on the biosensor by adding heregulin to immobilised HER3 ECD; also called heregulin active complex with HER3; complex of HER3 ECD with heregulin
Kind of assay: FortéBio biosensor (BLI), HER3 ECD on amine surface loaded with heregulin at 10 ug/ml, antibody from 67 nM, 3-fold series; average (Stdev 113). How it is done: The binding assay was repeated for two of the antibodies, 1G4 and 14B10 using the same FortéBio® method. HER3 ECD at 10-15 μg/ml was again captured onto the amine surface in the same buffer. Heregulin at 10 μg/ml was added to form the HER3:heregulin complex on the surface and the antibodies tested at 67 nM once again using three-fold dilution series and the data were fitted to determine binding constants.

Assay [4] deals with T1, HER3 extracellular domain (ECD). Kind of assay: FortéBio biosensor (BLI), HER3 ECD on amine-reactive surface, antibody in solution from 67 nM, 3-fold series; average (Stdev 2,660). On the procedure: Of these, six of these murine antibodies were assayed quantitatively for their binding affinities to HER3 ECD according to the commercially available FortéBio® method. In this method, ECD at 10-15 μg/ml was captured onto an amine-reactive surface in 10 mM MES, pH 6.0 at 25° C. Binding capacity is tested by treating the surface with unlabeled antibody. As unlabeled antibody accumulates on the surface, the optical characteristics of the surface are changed, thus allowing measurement of mass accumulation without requiring labeling. This is a modification of the Biacore™ style analysis. The antibodies were tested at 67 nM as the highest concentration and diluted in a three-fold dilution series. Response data for the various concentrations were individually and globally fitted to determine the binding affinities.

T1 sequence (P21860 20-643 limits assumed): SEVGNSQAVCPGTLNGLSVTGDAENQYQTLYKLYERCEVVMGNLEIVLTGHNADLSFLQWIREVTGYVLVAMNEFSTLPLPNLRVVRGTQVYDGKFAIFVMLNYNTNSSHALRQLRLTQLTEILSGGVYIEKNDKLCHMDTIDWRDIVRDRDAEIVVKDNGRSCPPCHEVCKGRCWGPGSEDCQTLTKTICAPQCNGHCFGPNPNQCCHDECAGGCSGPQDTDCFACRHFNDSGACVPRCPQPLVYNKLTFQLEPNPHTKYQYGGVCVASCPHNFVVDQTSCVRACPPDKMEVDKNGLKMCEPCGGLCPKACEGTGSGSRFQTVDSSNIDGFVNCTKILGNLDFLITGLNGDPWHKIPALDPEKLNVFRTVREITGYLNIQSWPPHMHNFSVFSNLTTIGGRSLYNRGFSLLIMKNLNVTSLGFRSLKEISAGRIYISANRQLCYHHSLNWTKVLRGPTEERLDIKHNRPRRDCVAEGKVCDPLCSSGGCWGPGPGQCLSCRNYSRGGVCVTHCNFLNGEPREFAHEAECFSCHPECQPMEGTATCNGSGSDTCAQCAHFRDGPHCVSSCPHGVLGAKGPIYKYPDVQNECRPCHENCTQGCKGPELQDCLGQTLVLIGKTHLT
Chain of HER3 on tumor cells (MCF-7, MB468) (P21860 20-1342 limits assumed): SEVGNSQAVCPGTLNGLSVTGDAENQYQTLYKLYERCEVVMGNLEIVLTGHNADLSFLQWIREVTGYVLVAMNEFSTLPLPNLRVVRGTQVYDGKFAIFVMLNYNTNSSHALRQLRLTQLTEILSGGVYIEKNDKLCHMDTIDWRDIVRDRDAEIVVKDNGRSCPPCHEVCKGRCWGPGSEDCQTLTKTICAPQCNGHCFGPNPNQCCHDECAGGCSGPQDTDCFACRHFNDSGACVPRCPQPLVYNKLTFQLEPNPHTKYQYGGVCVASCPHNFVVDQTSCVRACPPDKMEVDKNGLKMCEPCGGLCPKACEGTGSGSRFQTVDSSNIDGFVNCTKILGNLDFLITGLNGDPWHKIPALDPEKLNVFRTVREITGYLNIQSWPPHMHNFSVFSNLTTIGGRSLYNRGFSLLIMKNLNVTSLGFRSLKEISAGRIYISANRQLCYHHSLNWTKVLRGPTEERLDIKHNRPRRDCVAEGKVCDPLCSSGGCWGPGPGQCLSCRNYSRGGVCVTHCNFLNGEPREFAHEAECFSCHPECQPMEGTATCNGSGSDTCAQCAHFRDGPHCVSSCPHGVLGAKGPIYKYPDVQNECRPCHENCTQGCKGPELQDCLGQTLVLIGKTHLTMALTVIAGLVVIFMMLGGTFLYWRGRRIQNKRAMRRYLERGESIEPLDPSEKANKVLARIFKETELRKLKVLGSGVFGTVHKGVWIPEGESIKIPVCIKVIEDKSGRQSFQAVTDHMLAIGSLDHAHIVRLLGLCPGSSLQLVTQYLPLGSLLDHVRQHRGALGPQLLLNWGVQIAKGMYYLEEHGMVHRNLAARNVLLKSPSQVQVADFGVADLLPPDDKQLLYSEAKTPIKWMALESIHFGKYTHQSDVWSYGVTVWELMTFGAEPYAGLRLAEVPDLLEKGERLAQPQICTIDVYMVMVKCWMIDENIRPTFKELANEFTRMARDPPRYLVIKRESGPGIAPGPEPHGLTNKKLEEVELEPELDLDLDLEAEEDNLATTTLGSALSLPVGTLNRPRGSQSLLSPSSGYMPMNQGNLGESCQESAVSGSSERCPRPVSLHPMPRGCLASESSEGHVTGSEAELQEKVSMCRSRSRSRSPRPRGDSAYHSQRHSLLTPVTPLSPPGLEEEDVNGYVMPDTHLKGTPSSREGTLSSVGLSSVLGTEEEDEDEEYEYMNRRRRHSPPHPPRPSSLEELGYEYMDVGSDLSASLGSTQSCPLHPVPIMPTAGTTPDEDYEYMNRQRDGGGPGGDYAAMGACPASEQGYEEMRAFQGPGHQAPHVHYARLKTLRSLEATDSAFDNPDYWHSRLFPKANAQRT
T2 sequence (P21860 20-643 limits assumed, one chain of several): as the sequence (P21860 20-643 limits assumed) above

B1: heregulin (ligand, UniProt Q02297-6 177-241, looked up)
chain: SHLVKCAEKEKTFCVNGGECFMVKDLSNPSRYLCKCPNEFTGDRCQNYVMASFYKHLGIEFMEAE
notes: also called HRG
As to B1, in assay [1], the Kd amounted to 165 nM.

B2: 1G4 mAb (antibody, V domains shown)
VH: GASVKMSCKASGYTFTDYVISWVKQRTGQGLEWIGEIYPGSGRYYHNEKFKGKATLTADKSSNTAYIQLSSLTSEDSAVYFCTRSLQRLRYFDVWGAGTTVTVSS
VL: QSPATLSVTPGDRVSLSCRASQSISDYLHWYQQKSHESPRLLIKYGSQSISGIPSRFSGSGSGTDFTLSISSVETEDFGMYFCQQSNSWPLTFGAGTKLELKR
notes: Murine monoclonal antibody from a hybridoma; also called IG4; antibody 1G4
As for B2, the “IC50, inhibition of HER3 tyrosine phosphorylation in MCF-7 cells stimulated with heregulin” value in assay [2] is roughly 10 ng/mL. The Kd amounted to 0.327 nM in assay [3] and 2.81 nM in assay [4].

The record behind these values is US20130122000A1 (TRELLIS BIOSCIENCE, published 2013).
